Laboratory results as given in US20160032013A1 (Genentech, published 2016).
Changes are numbered by the printed parent chain. Numbers in names are those of the source.

Experiments:
[1] = target: T1, Human RON-hIgG1 Fc (RON Sema/PSI/IPT1 fused to human IgG1 Fc) (human); assay: BLI using RON-Fc at 30 C
T1 construct: also called RON-Fc; hRON-Fc
Protocol: Real-time kinetic measurements of MSP binding to RON were conducted using an Octet RED384 (ForteBio, Inc). Samples or buffer were dispensed into 96-well microtiter plates (Greiner Bio-One North America, Inc.) at a volume of 200 μl per well. Anti-human IgG Fc Biosensors were used for the experiments. Each experiment consisted of three steps: incubation with ForteBio Kinetic buffer diluted 1:10 in PBS assay buffer to establish an equilibrium for 120 s (baseline), incubation with 10 μg/ml RON-Fc in assay buffer to coat the biosensor with binding target for 900 s (load), incubation with MSP, MSP β or scMSP in assay buffer containing various concentrations (75-4.7 nM, 2-fold dilution series) for 400 s (association), and incubation with assay buffer to measure the off-rate of MSP for 400 s (dissociation). Operating temperature was maintained at 30° C. Data were generated automatically by the Octet Data Acquisition 7.0 software. Each data set was fitted globally to a simple one-to-one binding model using ForteBio Analysis Software 7.0 to determine the kinetic parameters kₐ and kd. The equilibrium dissociation constants (KD) were then calculated as a ratio (koff/kₒₙ) of these rate constants.

[2] = target: T1, Human RON-hIgG1 Fc (RON Sema/PSI/IPT1 …); assay: SPR capturing RON-Fc at 25 C
Protocol: To determine MSP protein binding kinetics to hRON-Fc or mRON-Fc fusion proteins, between 50 and 100 response units (RU) were captured on each of three immobilized anti-human Fc surfaces. Various concentrations (50-0.78 nM, 2-fold dilution series) of MSP, MSP β, MSP α or scMSP were injected in HBS-P buffer (10 mM HEPES, pH 7.5, 150 mM NaCl, 0.005% P20) at 25° C. with a flow rate of 30 μL/min and dissociation monitored for 4 min. Between measurements, the biosensor surfaces were regenerated with a 2 min pulse of 10 mM glycine-HCl pH 1.5.

[3] = target: T2, Recombinant human RON Sema/PSI (residues E25-P568) with C-terminal His-tag (human, UniProt Q04912 25-568); assay: SPR using immobilized RON Sema/PSI at 25 C
T2 construct: Made in Trichoplusia ni insect cells

[4] = target: T3, Mouse RON-hIgG1 Fc (murine RON Sema/PSI/IPT1, natural leader + R33-V684, fused to human IgG1 Fc) (mouse); assay: SPR (Biacore), anti-Fc chip; legend names murine RON-Fc; the sheet's scheme ('RON or MSP' over 'MSP-Fc or RON-Fc') and have the MSPβ-Fc fusion captured and soluble RON-His injected
T3 construct: also called mRON-hFc; murine RON-Fc
T3 sequence (chain, as listed by the source limits assumed): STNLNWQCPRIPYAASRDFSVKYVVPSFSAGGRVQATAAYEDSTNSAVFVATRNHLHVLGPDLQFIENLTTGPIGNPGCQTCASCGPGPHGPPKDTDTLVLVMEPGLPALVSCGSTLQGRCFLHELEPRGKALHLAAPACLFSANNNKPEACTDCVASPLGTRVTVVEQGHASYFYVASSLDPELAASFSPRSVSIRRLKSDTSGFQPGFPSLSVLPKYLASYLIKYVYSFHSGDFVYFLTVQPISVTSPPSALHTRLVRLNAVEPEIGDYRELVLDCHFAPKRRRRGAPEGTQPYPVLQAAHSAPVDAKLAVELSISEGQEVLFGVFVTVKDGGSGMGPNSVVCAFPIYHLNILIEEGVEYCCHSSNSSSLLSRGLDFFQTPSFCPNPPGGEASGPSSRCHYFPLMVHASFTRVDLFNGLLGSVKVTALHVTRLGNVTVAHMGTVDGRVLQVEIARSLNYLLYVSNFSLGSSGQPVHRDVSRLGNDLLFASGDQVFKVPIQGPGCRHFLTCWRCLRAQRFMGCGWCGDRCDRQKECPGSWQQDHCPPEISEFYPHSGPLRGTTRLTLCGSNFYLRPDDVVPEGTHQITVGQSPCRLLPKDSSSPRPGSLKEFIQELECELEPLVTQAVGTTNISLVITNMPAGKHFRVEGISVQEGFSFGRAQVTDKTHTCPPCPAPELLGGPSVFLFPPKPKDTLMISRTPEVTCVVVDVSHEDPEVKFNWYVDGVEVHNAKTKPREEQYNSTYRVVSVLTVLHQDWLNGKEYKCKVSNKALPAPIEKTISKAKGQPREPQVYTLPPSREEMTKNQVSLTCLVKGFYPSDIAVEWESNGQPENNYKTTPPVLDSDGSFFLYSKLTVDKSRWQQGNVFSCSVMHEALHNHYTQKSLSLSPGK
Protocol: Binding kinetics of RON to MSP β-Fc fusion proteins and MSP proteins to RON-Fc fusions were determined using a Biacore 3000 optical biosensor equipped with a research-grade CM5 sensor chip (GE Healthcare). Amine coupling reagents, N-ethyl-N′-dimethylamino-propylcarbodiimide (EDC), N-hydroxy-succinimide (NHS) and sodium ethanolamine HCl, pH 8.5, were obtained from GE Healthcare. Standard coupling protocols were used to tether a rabbit anti-human IgG1 or rabbit anti-murine IgG2a (Jackson ImmunoResearch Laboratories) onto the biosensor surface. A biosensor chip that was subjected to the amine coupling procedure with no protein coupled was used to correct for non-specific binding. […] Various concentrations (500-3.9 nM, 2-fold dilution series) of RON-His, were injected in HBS-P buffer (10 mM HEPES, pH 7.5, 150 mM NaCl, 0.005% P20) at 25° C. with a flow rate of 30 μL/min and dissociation monitored for 240 sec. Between measurements, the biosensor surfaces were regenerated with a 120 s pulse of 10 mM glycine-HCl pH 1.5 followed by a 120 s wash with running buffer.

T1 sequence (chain, as listed by the source limits assumed): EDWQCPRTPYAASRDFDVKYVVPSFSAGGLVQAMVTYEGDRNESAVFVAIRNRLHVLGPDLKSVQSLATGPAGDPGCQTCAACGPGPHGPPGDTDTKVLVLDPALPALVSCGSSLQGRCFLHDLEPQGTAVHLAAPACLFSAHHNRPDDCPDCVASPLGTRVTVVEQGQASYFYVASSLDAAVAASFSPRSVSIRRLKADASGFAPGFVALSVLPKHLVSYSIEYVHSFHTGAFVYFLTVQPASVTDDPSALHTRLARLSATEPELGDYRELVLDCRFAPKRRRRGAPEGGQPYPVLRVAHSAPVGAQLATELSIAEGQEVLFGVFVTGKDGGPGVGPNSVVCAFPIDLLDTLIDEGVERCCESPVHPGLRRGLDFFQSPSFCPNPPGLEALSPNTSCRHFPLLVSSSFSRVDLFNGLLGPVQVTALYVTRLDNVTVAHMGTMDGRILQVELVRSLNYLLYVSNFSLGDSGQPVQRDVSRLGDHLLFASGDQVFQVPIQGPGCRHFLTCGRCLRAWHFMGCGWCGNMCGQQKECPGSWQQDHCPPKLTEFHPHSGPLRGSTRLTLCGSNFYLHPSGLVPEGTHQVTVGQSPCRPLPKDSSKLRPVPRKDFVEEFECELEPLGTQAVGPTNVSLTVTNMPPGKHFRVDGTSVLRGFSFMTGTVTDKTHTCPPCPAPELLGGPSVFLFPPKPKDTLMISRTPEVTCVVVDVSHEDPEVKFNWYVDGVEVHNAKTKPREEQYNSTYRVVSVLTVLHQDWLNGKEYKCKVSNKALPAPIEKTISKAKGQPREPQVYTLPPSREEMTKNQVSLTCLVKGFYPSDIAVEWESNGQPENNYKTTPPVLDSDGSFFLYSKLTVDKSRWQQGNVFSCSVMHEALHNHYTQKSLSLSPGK

B1: Human MSP β R689C (HGF leader + V484-G711 + C588S + C672A + R689C + His tag) (ligand)
chain: VVGGHPGNSPWTVSLRNRQGQHFCGGSLVKEQWILTARQCFSSCHMPLTGYEVWLGTLFQNPQHGEPSLQRVPVAKMVCGPSGSQLVLLKLERSVTLNQRVALISLPPEWYVVPPGTKCEIAGWGETKGTGNDTVLNVALLNVISNQECNIKHRGRVRESEMCTEGLLAPVGACEGDYGGPLACFTHNAWVLEGIIIPNRVCARSCWPAVFTRVSVFVDWIHKVMRLGHHHHHH
notes: This is an inference
Question: Which Kd [1] does the source give for B1 here?
Answer: 9.1 nM

Question: And the koff [1]?
Answer: 0.0093 s⁻¹

Question: And the kon [1]?
Answer: 1.75e+06 M⁻¹ s⁻¹

Question: What about the Kd [2] of the same binder?
Answer: 9 nM

Question: And the koff [2]?
Answer: 0.0479 s⁻¹

Question: And the kon [2]?
Answer: 5.75e+06 M⁻¹ s⁻¹

Question: What about the Kd [3] of the same binder?
Answer: 9.1 nM

Question: And the koff [3]?
Answer: 0.0142 s⁻¹

Question: And the kon [3]?
Answer: 1.3e+06 M⁻¹ s⁻¹

B2: h.L16.m (Fc fusion)
MSP β-linker-Fc fusion chain: VVGGHPGNSPWTVSLRNRQGQHFCGGSLVKEQWILTARQCFSSCHMPLTGYEVWLGTLFQNPQHGEPSLQRVPVAKMVCGPSGSQLVLLKLERSVTLNQRVALISLPPEWYVVPPGTKCEIAGWGETKGTGNDTVLNVALLNVISNQECNIKHRGRVRESEMCTEGLLAPVGACEGDYGGPLACFTHNAWVLEGIIIPNRVCARSRWPAVFTRVSVFVDWIHKVMRLGQVTDKKIEPRGPTIKPCPPCKCPAPNLLGGPSVFIFPPKIKDVLMISLSPIVTCVVVDVSEDDPDVQISWFVNNVEVHTAQTQTHREDYNSTLRVVSALPIQHQDWMSGKEFKCKVNNKDLPAPIERTISKPKGSVRAPQVYVLPPPEEEMTKKQVTLTCMVTDFMPEDIYVEWTNNGKTELNYKNTEPVLDSDGSYFMYSKLRVEKKNWVERNSYSCSVVHEGLHNHHTTKSFSRTPGK
notes: Human MSP β joined by a 16-residue linker to murine IgG2a Fc; also called h16m; Human MSP β-L16-mIgG2a Fc
Question: B2 was tested. Which Kd [4] did it give?
Answer: 11.6 nM

B3: h.L16.m DANA (Fc fusion)
MSP β-linker-Fc fusion chain: B2 MSP β-linker-Fc fusion chain with A189S, D286A, N318A
notes: As h16m, with the D265A and N297A (DANA) mutations in the Fc; also called h16m (DANA); Human MSP β-L16-mIgG2a Fc (DANA)
Question: For B3, which Kd [4] is on record?
Answer: 10.9 nM

B4: m.L8.m DANA (Fc fusion)
MSP β-linker-Fc fusion chain: VVGGHPGNSPWTVSLRNRQGQHFCGGSLVKEQWVLTARQCIWSCHEPLTGYEVWLGTINQNPQPGEANLQRVPVAKAVCGPAGSQLVLLKLERPVILNHHVALIALPPEQYVVPPGTKCEIAGWGESIGTSNNTVLHVASMNVISNQECNTKYRGHIQESEICTQGLVVPVGACEGDYGGPLACYTHDAWVLQGLIIPNRVCARPRWPAIFTRVSVFVDWINKVMQLEPRGPTIKPCPPCKCPAPNLLGGPSVFIFPPKIKDVLMISLSPIVTCVVVAVSEDDPDVQISWFVNNVEVHTAQTQTHREDYASTLRVVSALPIQHQDWMSGKEFKCKVNNKDLPAPIERTISKPKGSVRAPQVYVLPPPEEEMTKKQVTLTCMVTDFMPEDIYVEWTNNGKTELNYKNTEPVLDSDGSYFMYSKLRVEKKNWVERNSYSCSVVHEGLHNHHTTKSFSRTPGK
notes: As m8m, with the DANA mutations in the Fc; also called m8m (DANA); Mouse MSP β-L8-mIgG2a Fc (DANA)
Question: For B4, which Kd [4] is on record?
Answer: 5 nM

B5: m.L4.m DANA (Fc fusion)
MSP β-linker-Fc fusion chain: VVGGHPGNSPWTVSLRNRQGQHFCGGSLVKEQWVLTARQCIWSCHEPLTGYEVWLGTINQNPQPGEANLQRVPVAKAVCGPAGSQLVLLKLERPVILNHHVALIALPPEQYVVPPGTKCEIAGWGESIGTSNNTVLHVASMNVISNQECNTKYRGHIQESEICTQGLVVPVGACEGDYGGPLACYTHDAWVLQGLIIPNRVCARPRWPAIFTRVSVFVDWINKVMQLETIKPCPPCKCPAPNLLGGPSVFIFPPKIKDVLMISLSPIVTCVVVAVSEDDPDVQISWFVNNVEVHTAQTQTHREDYASTLRVVSALPIQHQDWMSGKEFKCKVNNKDLPAPIERTISKPKGSVRAPQVYVLPPPEEEMTKKQVTLTCMVTDFMPEDIYVEWTNNGKTELNYKNTEPVLDSDGSYFMYSKLRVEKKNWVERNSYSCSVVHEGLHNHHTTKSFSRTPGK
notes: As m4m, with the DANA mutations in the Fc; also called m4m (DANA); Mouse MSP β-L4-mIgG2a Fc (DANA)
Question: With B5 as the binder, how does the Kd [4] read?
Answer: 13.8 nM

B6: m.L12.m DANA (Fc fusion)
MSP β-linker-Fc fusion chain: VVGGHPGNSPWTVSLRNRQGQHFCGGSLVKEQWVLTARQCIWSCHEPLTGYEVWLGTINQNPQPGEANLQRVPVAKAVCGPAGSQLVLLKLERPVILNHHVALIALPPEQYVVPPGTKCEIAGWGESIGTSNNTVLHVASMNVISNQECNTKYRGHIQESEICTQGLVVPVGACEGDYGGPLACYTHDAWVLQGLIIPNRVCARPRWPAIFTRVSVFVDWINKVMQLEKKIEPRGPTIKPCPPCKCPAPNLLGGPSVFIFPPKIKDVLMISLSPIVTCVVVAVSEDDPDVQISWFVNNVEVHTAQTQTHREDYASTLRVVSALPIQHQDWMSGKEFKCKVNNKDLPAPIERTISKPKGSVRAPQVYVLPPPEEEMTKKQVTLTCMVTDFMPEDIYVEWTNNGKTELNYKNTEPVLDSDGSYFMYSKLRVEKKNWVERNSYSCSVVHEGLHNHHTTKSFSRTPGK
notes: As m12m, with the DANA mutations in the Fc; also called m12m (DANA); Mouse MSP β-L12-mIgG2a Fc (DANA)
Question: How did the Kd [4] turn out when B6 was run?
Answer: 9.7 nM

B7: m.L16.m DANA (Fc fusion)
MSP β-linker-Fc fusion chain: VVGGHPGNSPWTVSLRNRQGQHFCGGSLVKEQWVLTARQCIWSCHEPLTGYEVWLGTINQNPQPGEANLQRVPVAKAVCGPAGSQLVLLKLERPVILNHHVALIALPPEQYVVPPGTKCEIAGWGESIGTSNNTVLHVASMNVISNQECNTKYRGHIQESEICTQGLVVPVGACEGDYGGPLACYTHDAWVLQGLIIPNRVCARPRWPAIFTRVSVFVDWINKVMQLEQVTDKKIEPRGPTIKPCPPCKCPAPNLLGGPSVFIFPPKIKDVLMISLSPIVTCVVVAVSEDDPDVQISWFVNNVEVHTAQTQTHREDYASTLRVVSALPIQHQDWMSGKEFKCKVNNKDLPAPIERTISKPKGSVRAPQVYVLPPPEEEMTKKQVTLTCMVTDFMPEDIYVEWTNNGKTELNYKNTEPVLDSDGSYFMYSKLRVEKKNWVERNSYSCSVVHEGLHNHHTTKSFSRTPGK
notes: As m16m, with the DANA mutations in the Fc; also called m16m (DANA); Mouse MSP β-L16-mIgG2a Fc (DANA)
Question: How did the Kd [4] turn out when B7 was run?
Answer: 6.6 nM
